A short description of the data set: soluble on expression in E. coli; label from the status in PepcDB or PDB records.
“MFKLLKTFQIVYEQMNFSKAATCLYISQPAVSNQIKQLEEELGCSLFLRNGRQDVVPTRQAEVLYNRLLNLADDWQETLTALHQARLPKETCRIAASNTFAVYYLPQLMQHLQTQYATINFVLEMNNSEEVVEKVEKHQVDFGFIEKPLITKGATREEIIQDQLVLAGDPANQNWLVREKDSGVFHYTQQYLEESNQSPTLMTVKNNEMIVKMLELGMGQSLLSRKAITEKIPFQTLGEKYWRSFYFLTRGHLKSSLLQEVKQAIYRFYQTEMNKY”: the “soluble on expression in E. coli” value is reported as “not soluble”. As to “MAHHHHHHMAAVFSTDASPSADVAVTAQFRVARGEYPTLAVLKQVPLLDDEALRLAMEKLAARRAGHTAGGGADGEPEGVDYTRYTTVDGEGTQACPCKDTGVWPAWVFSPGIQLMARRLRVRELSLEFLSLIDSMMAVNPADRPTAEAVLLDSPVFGMRMPWWEKVVEKAVRRVVEGKENVLLDVCVGDSDEEEEEDEEEAALVRRTMMPLVLPAENHGYVPHNVIHWWNVDLTRGEPDHTKWLSPTSLLASLLTTVRDLTGLEAARDAQDPVLREVPLYTATSLQFVERVCVPVRGTDVSARKIEDGPLFRELEAGGHSTGFFIHVQIRIRAIARAGQVLMANGWAEEEDVADQEEMARRAMEELVATTEKWLLSREATTGVAALHVLPWVSWHLNEEEAGTDGSTQHCFIVEYAAAGPGDGQPQPCANESSVTGEVSSVFRDWRANLTDGLQRLCCDDATAPDETTHDGASNAPRGGLRLEEKLEAMLDALEAVESELMERQKRNEAHQGLLQDHVVHWLSVRAAPSVERCMETLQGVCGGGDVSSQQIHEWILTTVFTSEGAMALMPVLRI”, the “soluble on expression in E. coli” value is “not soluble”. Consider “MAHHHHHHMSRNVAAEEEWEDVDAPNEEDEEEEDTTINNSDVMMRYKKAALWCNETLQLLLDATKPGAKVHELCKLGDETVAKKLKTMFKGTEKGLAFPTCISVNSCVAHNSPSADDEVASQEIQLGDVVHIDLGIHVDGYCAQVAHTVQVTENNELAADDDASKVISATYGILNTAMRKMRPGVSVYEVTEVIEKAAAHYGVTPVDGVLSHMLKRYIVDSFRCVPQRKVAEHLVHDYTLEAGQVWTLDIVMSSGKGKLKERDVRPTVYKVALDSNYTMKMESARELQREIEAKYQTFPFALRNLETKRARLGLSEMLKHGAVVPYPVLYERDGEVVGHFKITLLITAKKIEPVTGLKPQKAPTLPAYTDELLLEASKLPLTLEKKRKN”, for which the “soluble on expression in E. coli” value was “not soluble”. The same measure for “MGSDKIHHHHHHMLDKRAQILLKTLIEHYISDGQPVGSRKLSVASGLDLSPASIRNIMSELEDHGFIASPHTSAGRIPTQRGYRLFVDTLLTVQPLQNQEIRKLENVLSSPDPQELINKAAELLSSLTHFAGLVMIPKRQGAAFRHLEFLPLSEKRILVIIVTTDGAVQNRIILAEKPYSASDLTQASNFFNQHYAGNTLDEVKQKLHEELKQMQSDMTRLMAAALEASSKTADNKDGVVIAGKRNLLDVQDLSTNVSSLRKLFEMFEHRTSLMQLLDQSQKASGVQIFIGGESGYLPLDECSMVTAPYETNGQTIGTLGVIGPTRMAYERVIPIVDITAKLLSNALSNNH”: “not soluble”; for “MSLAIQMTTKTTYQWPQSKDIYPYRPGRFDAPKHWRYNLRSFLNRGSIRRFEQFINQHPFLIDIFNTHLDYSYPVACRFLDKRFNASQRFHAVCENLLFLPEKLTALSTPLWEKPLSFGEVIPDFEMTLSMTTHQPMEGYWVLELWHKPRNELVYLLTFAKLGDALLIAVVQGPNFEGSKEMVKQLTKLCHGLRPAYLMVETMKSLTKILGYNKLLGIPQKYQNKSRFIQSKQYTVDYDAIFGESGGELKDYWELPLEMDRNLDDIPSKKRSMYRKRYAMLDDLAKVIEEKLGLEGHHHHHH”: “not soluble”; for “AGKATANAPTDAAITAASDFAALEKACAGRLGVTLLDTASGRRIGHRQDERFPMCSTFKSMLAATVLSQAERMPALLDRRVPVGEADLLSHAPVTRRHAGKDMTVRDLCRATIITSDNTAANLLFGVVGGPPAVTAFLRASGDTVSRSDRLEPELNSFAKGDPRDTTTPAAMAATLQRVVLGEVLQPASRQQLADWLIDNETGDACLRAGLGKRWRVGDKTGSNGEDARNDIAVLWPVAGGAPWVLTAYLQAGAISYEQRASVLAQVGRIADRLIG”: “soluble”. The result for “MGSDKIHHHHHHMARTTDRQRNTRSPRQARRQLNKLLRDPIVKPHNAAAVRIRLDEMMAILQHREYRPEQPSSTNQVNTHGQVQFDLARWYPEGGRLRYTLRPRGALLPIAFTVQDFGNHRKSLTRGLALAVAGAAHQLDQMKAANKLPLIMQPFSDWVHLLAIGLQNWLENGQVVFSLADLNGAYVLTSMPTAPATWLARLFGISLGNPDQSLTDLRRQRQEQADRLTTRLAAKFAIEEAPLVQAANDRAAKSIQLDAATMATLASDQAPLRSQKDVVDRLARGDYIVIDTEFVADRNQLDLTEISLLRVRHHQVDGAFDIFTQLPEDHHVMPFSVKITGITDDLLSQYGQPLPLAKAAVEQLLKHELVVGFALSNDLRALRAGLNVDITPVQAFDVAALARKTFGIGKKHTPSLQHYKEALGVDLPSHTALSDAQTTMALLEHLIWEGSPLITKDIGFEQRPPEHANDPEPYQKPDPSTS” reads “not soluble”; that for “MRKRARIIYNPTSGKELFKRVLPDALIKLEKAGYETSAYATEKIGDATFEAERALESEYDLLIAAGGDGTLNEVVNGIAEQPNRPKLGVIPMGTVNDFGRALHLPSDIMGAIDVIIDGHTTKVDIGKMNNRYFINLAAGGKLTQVSYETPSKLKSIVGPFAYYIKGFEMLPQMKAVDVRIEYDDNIFQGEALLFLLGLTNSMAGFEKLVPDAKLDDGYFTLIIVEKANLAELGHIMTLASRGEHTKHPKVIYAKAKSINISSFTDMQLNVDGEYGGKLPANFLNLEQHIEIFTPKDVFNEELLENDTITDITPDKQ”, “not soluble”; that for “GPGSMSAHDSSAMALIAHMNDIEQQRRVLSMSQREQEAKIAFTTAEKEQLVQAAKAAEAEEAQLKDDLEVLATEQQQLELQKMEATDRLRRTQAEEALHTAAVEADLQALAKEKVLWHERAQDLESLRRSWEEDAATSSCIAALRQESEMLAPLKAEKTAVEDALAETMAAIEKVRAEQQARLTCLGSVGAPADAVQRSGLARALASMHGSALSDGNTATVDDDDTAAALEEEIKRADYEAAQVTARHGRTIAVLQREVDALSTRAGELQQLLSSIGASWQEVLSRTRDLQHCKETGLCRRCLT”, “soluble”.

Take “MRQGGIYQTKDANKGPVTVPPLRTKTPPPPPPPVRRHEIYEQHKRYTSAPNLQSAVIRIQDDKPRSIMKRNDLVRREQMLYPTVDTQVVKSVVKKPTVTETVQRFEETRRTEEVERRVQRREKKERRSRHHSSSRHHSGWEGHTGGYQEYRQGAITSSLPRRQIIREADRAMTEEEMNKVVREAYAAADEARKDSRHRSSSLSRGGHGGGGQETYYRQETTRRQQHNNYDDNFNRGIAHARYGSLSDSLRRGELQYVPNGEVRQSFYRDGSNGGQRMHKSYSTRDVFTGDGYDDRRSVSSFRRGSQQQVSPFVEFPPTLPRRGGGGDYRREEDAYFRPVSKSRSYADWDDAGRAGMGREVRRYDDDMSRLEAEFRDSLLMPMPAGNMNERDHRTEQLPGGYETFNKERHANSGRRSGRDGKPVDFNEATQEYNYKREQTLNDDRRRR”: the “soluble on expression in E. coli” value is on record as “not soluble”. The result for “MSLTTMKEIAEQTGVSISTVSLVLNGRDEGRVNPALAKLVRNKATELGYKINPLARSLRTNKTRILGFISEEVATTPYAGGIILGAQDAASAYGYMLFTVSTDGKASEENEIATLKRYGVDGFFYSKMSNRIAHVPESLSDYPVVMVDATDYENKVPSVEPDEFMIGYDATIRLLQADCKRIAYVGCAENMIAQDGRLAGYCTALQEAGRAFNPSLVCNVMNDGPALRAVNKLFDDEHPDGFFCFNDARAWYVYECAARRGLTVGKDISVVGVDNHRVFAETLEPQLTTVELPHYEMGYWSACKLISMIEGKDVDTSSCPSARASLPPLDAPIPAKIHCALLEKDSVISEGHHHHHH” reads “soluble”; that for “MSQSRHRAEAPPLEREDSGTFSLGKMITAKPGKTPIQVLHEYGMKTKNIPVYECERSDVQIHVPTFTFRVTVGDITCTGEGTSKKLAKHRAAEAAINILKANASICFAVPDPLMPDPSKQPKNQLNPIGSLQELAIHHGWRLPEYTLSQEGGPAHKREYTTICRLESFMETGKGASKKQAKRNAAEKFLAKFSNISPENHISLTNVVGHSLGCTWHSLRNSPGEKINLLKRSLLSIPNTDYIQLLSEIAKEQGFNITYLDIDELSANGQYQCLAELSTSPITVCHGSGISCGNAQSDAAHNALQYLKIIAERK”, “soluble”; that for “MRIDFGAGDEISFIKKGHAGVIKLARSSALNALNGRMVSALKKALSVWETDDDVSCVLIEGEGRAFCAGGDVVEIYHMEEKISSYQYFNDEYRLNAYIKHFRKPYISFLNGIWMGGGVGISIYGSHRIVTENTLFAMPESAIGFFPDVGASFFLPSLPDHFGIYLALTGARIKWGDCLNLGLATHAVPEIELECIRKAIIEQGNPQLALEEHAITKDYETSHEIRSVINACFGTHTLEECMELLYKKSNEGLFFARECYDILQSRSPTSLKVIWKQMKQNSSQTLEECMKIENRIAHHMINSHDFREGVRAMLIDKDKTPKWQPDKLSNITDEMIDAYFQPVEKELLF”, “not soluble”. Turning to “MSLARKNTATRQVIHIVGEGLTELFYFSHLKKILGYRYSISPRLFENNSIEKIEKKIKELLDEDVFVICVFDADVSRRSDAENKKMVSFKKKYENNPNVILCDSLQSIEYWFLLHFEDTCRHFQDSAATERALKQYLPTYDKTRKYLEKDKWVKEMLAGSKMDKACELAEKYKGRDSYSEIYKAIKKVSQNEGHHHHHH”, the “soluble on expression in E. coli” value is given as “soluble”. The same measure for “MDRKIVQLIHNFSGTEKLKAAVFSHDEQCFFDFVSFDELNSKLTGFLLFDSLEKLFKLVETIQQKRSWLYVDELWLINTATENQQLNEVSVWLVKKELAQVGVLTQLDTSLVKLLMASKNTDSALYNTYIKPVELQQFTQTPAPDNVNAEQSHLTLESTTDLNNSQLANTPALWEVEQTTQELLPTMDFSKFIDELDQITKNFSDLELEPLSFNEGFDEWNQE”: “soluble”. The same measure for “MGSDKIHHHHHHMPDFSYAKITKLVVHFAGNKAREEGTEVSANVLQDIGSEMNQTLASIFLEPFTKDDYYQFSHETDLDFNEVRTFAANMFGAEEEFLDESKKILEHLYSETTHPNIKSGDVWIFFIEGCVVDGDFTNGIGIFKVENKEVFLKNDFNGSEFQIGYDKGITGTDLDKGCLIFNVDHDSGNKVLILDRLNRGDSVYWKDKFLSIDKITDEKFYTEGFVEVCTDYIKQREESLLDKSNFVKATSEYLAGEETLNIAEFARTTIEKPEEITEFNTMVDTFERENNVRFPETFQLDEEKREKLSKKIRKTIKLGKNISVVVKDLEQLEETDFVQGYDEEKGKNYMIVYYD”: “not soluble”; for “MSSNENSDDVPEQRQIVRRSRVYNPRDPSSPEPPYDPYPPGIHAQAGCATRPISAHIVPQALIEPIRLHREEDELAGTSSCRPVPQCDFNLESDRWEEDQLENPQIKSQWKGSETRPVANFARRQQRVLRTDWKHVDVQITVWEELKKVLEAAEIVDVTLNMMKTLNPDTKAMWLLKFHTTSLTEYLEDFESRAEYFNEMLLELDGIHPDLFTECSNYISQLKDVTHSRELQAVQVHLPKAVKNSDAQKVRFYLQLAGEAKKDIAVVLNNNKVKTLLIDNGFTL”: “not soluble”.

For the sequence “MEIRLFSGSAHPDLARRVAEALGVPLGKALVDRFPDGEVRVRLLESVRGEDVYLIQPTCPPVNDHLMELLLLADAARRSSAGRINAVIPYFGYARQDKQTEGREPISARLVAGLLERVGVERVIAIDLHAPQIQGFFDIPVDHLSAVRLFARYLREKGYVENAVVVSPDAGRAEEARRLAERLGLPLAMLAKRRLGPRETSVTYVIGDVEGKRPILVDDIVSTGGTIRRGVEALLQAGALPEVVVMATHAVLVGGAKENLAHPAVREVVFTDTIPLKDGGYTVLSTAELLAQAIRHVHTNQSVSALI”, the “soluble on expression in E. coli” value is on record as “soluble”.

For the origin of these results see the DeepSol protein solubility set.
